Reference: paper PMC8831599, “Defining molecular glues with a dual-nanobody cannabidiol sensor” (Nature Communications, 2022)

Key:
[1] = biological target: Biotin-DB21 (biotinylated Avi-DB21); assay: AlphaScreen or HTRF; competition without CBD: 200 nM His-CA14 on acceptor beads, 67 nM biotinylated DB21 (wild type or mutant) on streptavidin donor beads, label-free protein titrated; 25 mM HEPES pH 7.4, 100 mM NaCl, no TCEP, 0.1% Tween-20, 0.05 mg/mL BSA
[2] = biological target: Biotin-DB21 (biotinylated Avi-DB21); assay: BLI; biotinylated DB21 on streptavidin probe, tag-free CA14 as analyte, no CBD; 30 °C; 25 mM HEPES pH 7.4, 100 mM NaCl, no TCEP, 0.1% Tween-20, 0.05 mg/mL BSA; kinetic and steady-state analysis differ

IC50 [1]: 20 µM
Kd [2]: 19 µM
Kd determined by kinetics [2]: 3 µM
B1: CA14 anchor binder nanobody, tag-free (VHH)
VHH: EVQLQASGGGFVQPGGSLRLSCAASGSTSRQYDMGWFRQAPGKEREFVSAISSNQDQPPYYADSVKGRFTISRDNSKNTVYLQMNSLRAEDTATYYCAFKQHHANGAYWGQGTQVTVSS
